Assay results published in patent US20130266605A1, “PEPTIDE INHIBITORS OF CD40L SIGNALING AND USES THEREFOR” (PHYLOGICA LIMITED, priority 2010, published 2013).
Entries after “also recorded” stand apart in the source; their conditions may differ. Read-outs that look alike come from different tables or passages of the source. Positions of bridges follow the written chain, without caps; N, C: chain ends. Residues, ends and D or L forms follow the SMILES beside them. Chains are numbered I, II in the order given. No end group written: not given here. PEG = not defined here

Experiments:
TNFα-induced cytoxicity = experiment: TNFα-induced cytotoxicity control assay; type: cell-based; conditions: in words, specificity control
Procedure: (§1) As a control in these assays, LPS-induced expression of CD86 mediated by the Toll-like receptors TLR 2/4, and TNFα-induced cytoxicity, were also assayed to exclude effects mediated by ligands other than CD40L.

CD40L-CD40 interaction = biological target: T1, CD40L-CD40 interaction (Homo sapiens, UniProt P29965); experiment: Chemiluminescent proximity assay (Alphascreen); type: binding; conditions: Alphascreen proximity assay; monomeric and dimeric peptides (Table 5); read-out: EC50
T1 sequence (P29965 113-261 limits assumed): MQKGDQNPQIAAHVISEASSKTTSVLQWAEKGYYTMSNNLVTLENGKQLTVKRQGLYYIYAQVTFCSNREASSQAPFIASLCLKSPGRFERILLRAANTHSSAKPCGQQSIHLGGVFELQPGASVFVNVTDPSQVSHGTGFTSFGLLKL
Procedure: In one example, the Alphascreen assay (PerkinElmer) was employed according to the manufacturer's instructions.
Homodimers and heterodimers were also assayed by chemiluminescent proximity assay for their ability to inhibit CD40L-CD40 interaction.

[1] = biological target: CD40L-induced CD86 expression on primary B-cells (UniProt P29965); experiment: Inhibition of CD40L-induced CD86 expression on primary B-cells (FACS); conditions: in words
Chain of CD40L-induced CD86 expression on primary B-cells (P29965 whole entry): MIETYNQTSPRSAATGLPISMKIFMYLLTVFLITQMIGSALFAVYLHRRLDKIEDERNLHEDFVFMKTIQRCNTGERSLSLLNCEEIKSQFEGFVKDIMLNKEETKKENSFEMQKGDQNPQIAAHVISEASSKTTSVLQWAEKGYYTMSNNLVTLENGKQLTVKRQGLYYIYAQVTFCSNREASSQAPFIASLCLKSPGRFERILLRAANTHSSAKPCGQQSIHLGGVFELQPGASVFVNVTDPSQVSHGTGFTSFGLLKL
Chain of CD40L-induced CD86 expression on primary B-cells (P25942 21-277 partner): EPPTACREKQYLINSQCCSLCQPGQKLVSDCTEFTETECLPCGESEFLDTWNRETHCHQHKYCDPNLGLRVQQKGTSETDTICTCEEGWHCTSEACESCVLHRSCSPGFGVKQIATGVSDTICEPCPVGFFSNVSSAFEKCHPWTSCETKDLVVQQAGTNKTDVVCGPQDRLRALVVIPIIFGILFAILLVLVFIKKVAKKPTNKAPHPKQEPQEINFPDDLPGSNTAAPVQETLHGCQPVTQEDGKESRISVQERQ
Procedure: In one example, the ability of a peptide, analog or derivative of the invention to inhibit or reduce or delay expression of CD86 on primary B-cells was determined in the presence and absence of the peptides, analogs and derivatives of the invention. In particular, CD86 expression was determined by FACS.

[2] = tested on: LPS-induced expression of CD86 mediated by the Toll-like receptors TLR 2/4; experiment: LPS-induced CD86 expression control assay; type: cell-based; conditions: in words; specificity control; listed as M1—18S
Procedure: as §1

CD40 ligand, P29965 [3] = biological target: T2, CD40 ligand, P29965; experiment: Alphascreen, unmodified peptide, inhibition of CD40L/CD40-Fc
T2 chain: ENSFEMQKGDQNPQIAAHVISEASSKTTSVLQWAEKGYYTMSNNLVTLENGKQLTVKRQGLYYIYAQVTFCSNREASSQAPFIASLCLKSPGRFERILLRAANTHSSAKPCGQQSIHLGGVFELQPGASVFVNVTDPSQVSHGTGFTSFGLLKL

CD40 ligand, P29965 [4] = biological target: T2, CD40 ligand, P29965; experiment: Octet Red label-free (BLI)
CD40 ligand [5] = biological target: T3, CD40 ligand (UniProt P29965 108-261, limits assumed); experiment: Alphascreen proximity assay, peptide titrated against 0.75nM CD40L; blocked interaction: CD40L with CD40
T3 construct: Used immobilised, soluble, or biotinylated on streptavidin beads; also called CD154; soluble CD40L
T3 sequence (looked up): T2 chain

CD40 ligand [6] = biological target: T3, CD40 ligand; experiment: Alphascreen proximity assay, peptide titrated; blocked interaction: CD40L with CD40
CD40 ligand [7] = biological target: T3, CD40 ligand; experiment: cell-based or functional assay
CD40 ligand [8] = biological target: T3, CD40 ligand; experiment: Alphascreen proximity assay, inhibition of CD40L-CD40
CD40 ligand [9] = biological target: T3, CD40 ligand; experiment: Alphascreen proximity assay (1hr), peptide titrated against 0.75nM CD40L; blocked interaction: CD40L with CD40; signal falls from about 21000 to about 3000 units
CD40 ligand [10] = biological target: T3, CD40 ligand; experiment: Alphascreen, unmodified peptide, inhibition of CD40L/CD40-Fc
CD40 ligand [11] = biological target: T3, CD40 ligand; experiment: Octet Red label-free (BLI)
CD40 ligand [12] = biological target: T3, CD40 ligand; experiment: phage-displayed peptide on bound CD40L, soluble CD40L as competitor
CD40 ligand [13] = biological target: T3, CD40 ligand; experiment: cell-based or functional assay; remark: listed apart in the source
CD40 ligand [14] = biological target: T3, CD40 ligand; experiment: Alphascreen proximity assay (1hr), peptide titrated against 0.75nM CD40L; blocked interaction: CD40L with CD40; signal falls from about 27500 to about 5000 units
CD40 ligand [15] = biological target: T3, CD40 ligand; experiment: Alphascreen proximity assay, peptide dimer titrated against 0.75nM CD40L; blocked interaction: CD40L with CD40; signal falls from about 12500 to about 4000 units
CD40 ligand [16] = biological target: T3, CD40 ligand; experiment: Alphascreen proximity assay, peptide dimer titrated against 0.75nM CD40L; blocked interaction: CD40L with CD40; signal falls from about 23000 to about 4000 units
CD40 ligand [17] = biological target: T3, CD40 ligand; experiment: from the KD values of Table 2 (Octet Red)
CD40 ligand [18] = biological target: T3, CD40 ligand; experiment: Octet Red label-free (BLI); remark: listed apart in the source
CD40 ligand [19] = biological target: T3, CD40 ligand; experiment: Alphascreen, PEGylated peptide, inhibition of CD40L/CD40-Fc

`CC[C@H](C)[C@H](NC(=O)[C@H](CO)NC(=O)[C@H](Cc1ccccc1)NC(=O)[C@@H](NC(=O)[C@H](CC(N)=O)NC(=O)[C@H](CCCCN)NC(=O)[C@@H](NC(=O)[C@H](CO)NC(=O)[C@H](Cc1ccccc1)NC(=O)[C@@H]1CCCN1C(=O)[C@@H](N)Cc1c[nH]cn1)[C@@H](C)CC)C(C)C)C(=O)N[C@@H](Cc1c[nH]c2ccccc12)C(=O)N[C@@H](CC(N)=O)C(=O)N[C@@H](Cc1ccccc1)C(=O)N[C@@H](Cc1ccccc1)C(=O)N[C@@H](CO)C(=O)N[C@H](C(=O)N[C@@H](Cc1ccc(O)cc1)C(=O)O)C(C)C` [CD40L M1_6s] (H-HPFSIKNVFSIWNFFSVY-OH; N-terminus and C-terminus assumed) was tested, and the “significant inhibition of TNFα-induced cell death / cytoxicity” value (TNFα-induced cytoxicity) was “lack of inhibition and none” and the EC50 (CD40L-CD40 interaction) was 0.122 to 0.323 nM.

For `CC[C@H](C)[C@H](NC(=O)[C@H](CO)NC(=O)[C@H](Cc1c[nH]c2ccccc12)NC(=O)[C@H](CCC(N)=O)NC(=O)[C@@H](NC(=O)[C@@H]1CCCN1C(=O)[C@H](Cc1ccccc1)NC(=O)[C@H](Cc1ccccc1)NC(=O)[C@H](Cc1c[nH]c2ccccc12)NC(=O)CNC(=O)[C@H](Cc1ccc(O)cc1)NC(=O)[C@H](CCCCN)NC(=O)[C@H](CC(C)C)NC(=O)[C@@H](NC(=O)[C@H](Cc1c[nH]cn1)NC(=O)[C@H](CO)NC(=O)[C@H](CCCNC(=N)N)NC(=O)[C@H](Cc1ccc(O)cc1)NC(=O)[C@@H]1CCCN1C(=O)[C@@H](NC(=O)[C@H](Cc1ccccc1)NC(=O)[C@@H]1CCCN1C(=O)[C@@H](N)CC(C)C)C(C)C)C(C)C)C(C)C)C(=O)N[C@@H](Cc1ccccc1)C(=O)N[C@@H](C)C(=O)N[C@H](C(=O)N[C@@H](CC(C)C)C(=O)N1CCC[C@H]1C(=O)N[C@@H](Cc1ccccc1)C(=O)N[C@@H](CCC(N)=O)C(=O)N[C@@H](Cc1ccc(O)cc1)C(=O)N[C@@H](CC(C)C)C(=O)N[C@@H](Cc1c[nH]cn1)C(=O)N[C@@H](CCCNC(=N)N)C(=O)N[C@@H](CO)C(=O)N[C@@H](CCCNC(=N)N)C(=O)O)C(C)C` [CD40L M1_18s] (H-LPFVPYRSHVLKYGWFFPVQWSIFAVLPFQYLHRSR-OH; N-terminus and C-terminus assumed), the “significant inhibition of TNFα-induced cell death / cytoxicity” value (TNFα-induced cytoxicity; listed as M1—18*S) was “lack of inhibition”, the “significant inhibition of TNFα-induced cell death / cytoxicity” value (TNFα-induced cytoxicity; listed as M1—18S) was “none” and the “inhibition of CD40L-induced CD86 expression on primary B-cells” value [1] was “concentration-dependent inhibition”. For the same molecule, the “inhibition of LPS-induced CD86 expression” value [2] was “lack of concentration-dependent inhibition; also recorded: no significant inhibition”.

B1: CD40L M8_747 (peptide)
peptide: LAEHAVWSLKCFPDWEWYNINIFGTDDPNHFWVECDGHGKILFPGYPEGYYENHFLHSFELED
modifications: not checked
Molecule B1 has an EC50 (CD40 ligand, P29965 [3]) of 197 nM and a Kd (CD40 ligand, P29965 [4]) of 8 nM.

RIESLEGEMWLINPFNGETLDEHTLEVWLK (modifications not checked) [CD40L M8_748] was tested, and the EC50 (CD40 ligand, P29965 [3]) was 184 nM and the Kd (CD40 ligand, P29965 [4]) was 5 nM.

In the case of HPFSIKNVFSIWNFFSVY (Cys-to-Ser derivative) [CD40L M1_6s], the “IC50 (read off the curve)” value (CD40 ligand [5]) is reported as roughly 300 nM, the “IC50 (read off the curve)” value (CD40 ligand [6]) is reported as roughly 300 nM and the “EC50, inhibition of CD40L-induced CD86 expression on primary B-cells” value (CD40 ligand [7]) is reported as 323 nM.

For CHPFSIKNVFSIWNFFSVY [Cys_M1_6S], the “IC50 (read off the curve)” value (CD40 ligand [5]) was roughly 300 nM, the “IC50 (read off the curve)” value (CD40 ligand [6]) was roughly 300 nM and the EC50 (CD40 ligand [8]) was 0.265 nM. For the same molecule, the “EC50, inhibition of CD40L-induced CD86 expression on primary B-cells” value (CD40 ligand [7]) was 306 nM.

B2: CD40L M1_9s (peptide)
peptide: PPRYNLFFLFRFYSSFRRDYLYF
notes: Cys-to-Ser derivative; also called M1-9Sa
With B2 the EC50 (CD40 ligand [8]) was 0.564 nM, the “EC50, inhibition of CD40L-induced CD86 expression on primary B-cells” value (CD40 ligand [7]) was 564 nM and the EC50 (CD40 ligand [9]) was 564 nM.

For PPRYNLFFLFRFYCSFRRDYLYF (Base peptide) [CD40L M1_9], the EC50 (CD40 ligand [10]) was 370 nM, the Kd (CD40 ligand [11]) was 8 nM and the IC50 (CD40 ligand [12]) was 81.1 nM.

With LPFVPYRSHVLKYGWFFPVQWSIFAVLPFQYLHRSR [CD40L M1_18s] the “EC50, inhibition of CD40L-induced CD86 expression on primary B-cells” value (CD40 ligand [7]) was 743 nM and the “EC50, inhibition of CD40L-induced expression of CD86 on primary B-cells (FACS)” value (CD40 ligand [13]) was roughly 743 nM.

B3: M7_189S (peptide)
peptide: LLLFFFSPPFSIFSFSLTTLS
notes: Cys-to-Ser derivative; also called M1-189Sa
B3 was tested, and the EC50 (CD40 ligand [14]) was 176 nM, the EC50 (CD40 ligand [8]) was 0.176 nM and the “EC50, inhibition of CD40L-induced CD86 expression on primary B-cells” value (CD40 ligand [7]) was 176 nM.

B4: Cys_M1_6S homodimer (peptide)
peptide: CHPFSIKNVFSIWNFFSVY
modifications: also: homodimer: disulfide between the N-terminal cysteines of two chains
notes: also called 6-6 dimer; homodimer of the Phylomer peptide M1-6
With B4 the EC50 (CD40 ligand [8]) was 0.0489 nM, the “EC50, inhibition of CD40L-induced CD86 expression on primary B-cells” value (CD40 ligand [7]) was 48.9 nM and the EC50 (CD40 ligand [15]) was 48.9 nM.

B5: Cys_M1_6S-Cys_M1_9S heterodimer (peptide)
peptide 1: CHPFSIKNVFSIWNFFSVY
peptide 2: CPPRYNLFFLFRFYSSFRRDYLYF
modifications: disulfide I:1-II:1
notes: also called 6-9 dimer
B5 was tested, and the EC50 (CD40 ligand [16]) was 30 nM, the EC50 (CD40 ligand [8]) was 0.03 nM and the “EC50, inhibition of CD40L-induced CD86 expression on primary B-cells” value (CD40 ligand [7]) was 35 nM.

LPFVPYRSHVLKYGWFFPVQWSIFAVLPFQYLHRCR (Base peptide) [CD40L M1_18] was tested, and the EC50 (CD40 ligand [10]) was 350 nM, the Kd (CD40 ligand [11]) was 2.3 nM and the “IC50, inhibition of CD40L-induced expression of CD86 on primary B-cells” value (CD40 ligand [13]) was less than 500 nM. The IC50 (CD40 ligand [12]) was 25 nM.

B6: CD40L D1_0014 (peptide)
peptide: PFTWRPTIFWIIQLIVYMRHFGGGGSRSELLRENICRYVSLFDHPLQRNTPLDELRFVIFDTETSGFDLVKDRILSIR
notes: Single-chain fusion of two peptide monomers; also called heterodimeric peptide of CD40L M1-206 and a second monomer with tetra-glycine spacer
B6 was tested, and the “fold higher affinity than the base monomeric peptide CD40L M1-206” value (CD40 ligand [17]) was 6 fold.

PRWVRNRFYSLFVPSGVQRGGIHLWFSNWVR (Cys-to-Ser derivative) [CD40L M1_50s] gave a Kd (CD40 ligand [18]) of 600 nM.

With {PEG}-SIQYHWRYSRFKYYFQLIWVYYCHV (reading uncertain) [PEGylated CD40L M1_82] the EC50 (CD40 ligand [19]) was 120 nM.

{PEG}-PFTWRPTIFWIIQLIVYMRHF (reading uncertain) [PEGylated CD40L M7_206] was tested, and the EC50 (CD40 ligand [19]) was 88 nM.

With DAAGREFFQIAGLFSFRHHWWQA [CD40L M1_30s] the Kd (CD40 ligand [18]) was 400 nM.
